T1: Bcd homeodomain (Drosophila melanogaster, UniProt P09081-2 77-166)
T1 sequence: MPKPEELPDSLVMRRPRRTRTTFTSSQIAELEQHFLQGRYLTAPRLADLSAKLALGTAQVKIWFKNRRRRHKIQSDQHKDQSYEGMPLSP

T2: Bicoid DBD-GST (Bcd) (UniProt P09081 83-170)
T2 sequence: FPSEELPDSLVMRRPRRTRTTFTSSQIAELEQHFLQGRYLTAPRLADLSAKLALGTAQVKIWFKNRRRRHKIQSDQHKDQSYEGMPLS


Tested on: Giant DBD-GST (Gt)
Test: competitive fluorescence anisotropy (HiP-FA)
Details: HiP-FA: 33 mM phosphate pH 7.0, 90 mM NaCl, 0.01% Tween 20, 0.1 mM DTT, 0.5% agarose; conventional titration and EMSA: 20 mM Tris-acetate pH 7.0, 50 nM …

Molecule | Kd
Gt consensus oligo | 0.9 nM

Tested on: Ttk-F DBD-GST
Test: competitive fluorescence anisotropy (HiP-FA)
Details: HiP-FA: 33 mM phosphate pH 7.0, 90 mM NaCl, 0.01% Tween 20, 0.1 mM DTT, 0.5% agarose; conventional titration and EMSA: 20 mM Tris-acetate pH 7.0, 50 nM …

Molecule | Kd
Ttk-F consensus oligo | 48 nM

Tested on: Caudal DBD-GST (Cad)
Test: competitive fluorescence anisotropy (conventional titration)
Details: HiP-FA: 33 mM phosphate pH 7.0, 90 mM NaCl, 0.01% Tween 20, 0.1 mM DTT, 0.5% agarose; conventional titration and EMSA: 20 mM Tris-acetate pH 7.0, 50 nM …

Molecule | Kd
Cad consensus oligo | 0.05 nM

Target: T1, Bcd homeodomain
Test: FP; 33 mM phosphate pH 7.0, 90 mM NaCl, 0.01% Tween 20, 0.1 mM DTT, 0.5% agarose; room temperature
Details: tags: N-GST (pGEX-6P-1, kept)

Molecule | Kd
Bcd consensus (dsDNA) DNA 1: TCGACGGTAATCCCTA DNA 2: TAGGGATTACCGTCGA | 2.2 nM
Bcd oligo 6 (dsDNA) DNA 1: TCGACAGTAATCCCTA DNA 2: TAGGGATTACTGTCGA | 5.86 nM
Bcd oligo 5 (dsDNA) DNA 1: TCGACTGTAATCCCTA DNA 2: TAGGGATTACAGTCGA | 6.66 nM

Same assay, conditions: tags: N-GST (pGEX-6P-1, kept); printed reverse strand differs at base 6 of strand 1 (G / C); complement of the forward strand used

Molecule | Kd
Bcd oligo 29 (dsDNA) DNA 1: TCGACGGTAATCCTTA DNA 2: TAAGGATTACCGTCGA | 4.03 nM
Bcd oligo 21 (dsDNA) DNA 1: TCGACGGTAAACCCTA DNA 2: TAGGGTTTACCGTCGA | 48.8 nM
Bcd oligo 33 (dsDNA) DNA 1: TCGACGGTAATCCCAA DNA 2: TTGGGATTACCGTCGA | 4.71 nM
Bcd oligo 28 (dsDNA) DNA 1: TCGACGGTAATCCGTA DNA 2: TACGGATTACCGTCGA | 3.67 nM
Bcd oligo 24 (dsDNA) DNA 1: TCGACGGTAATACCTA DNA 2: TAGGTATTACCGTCGA | 47.8 nM
Bcd oligo 30 (dsDNA) DNA 1: TCGACGGTAATCCATA DNA 2: TATGGATTACCGTCGA | 5.18 nM
Bcd oligo 25 (dsDNA) DNA 1: TCGACGGTAATCGCTA DNA 2: TAGCGATTACCGTCGA | 14.1 nM
Bcd oligo 23 (dsDNA) DNA 1: TCGACGGTAATTCCTA DNA 2: TAGGAATTACCGTCGA | 27.2 nM
Bcd oligo 1 (dsDNA) DNA 1: TCGAGGGTAATCCCTA DNA 2: TAGGGATTACCCTCGA | 2.7 nM
Bcd oligo 12 (dsDNA) DNA 1: TCGACGGAAATCCCTA DNA 2: TAGGGATTTCCGTCGA | 12.9 nM
Bcd oligo 19 (dsDNA) DNA 1: TCGACGGTAACCCCTA DNA 2: TAGGGGTTACCGTCGA | 94.1 nM
Bcd oligo 27 (dsDNA) DNA 1: TCGACGGTAATCACTA DNA 2: TAGTGATTACCGTCGA | 12.7 nM
Bcd oligo 2 (dsDNA) DNA 1: TCGATGGTAATCCCTA DNA 2: TAGGGATTACCATCGA | 2.66 nM
Bcd oligo 4 (dsDNA) DNA 1: TCGACCGTAATCCCTA DNA 2: TAGGGATTACGGTCGA | 5.02 nM
Bcd oligo 11 (dsDNA) DNA 1: TCGACGGGAATCCCTA DNA 2: TAGGGATTCCCGTCGA | 21.4 nM
Bcd oligo 26 (dsDNA) DNA 1: TCGACGGTAATCTCTA DNA 2: TAGAGATTACCGTCGA | 7.79 nM

Molecule | Kd
Bcd oligo 3 (dsDNA) DNA 1: TCGAAGGTAATCCCTA DNA 2: TAGGGATTACCTTCGA | 3.76 nM
Bcd oligo 9 (dsDNA) DNA 1: TCGACGATAATCCCTA DNA 2: TAGGGATTATCGTCGA | 3.8 nM
Bcd oligo 31 (dsDNA) DNA 1: TCGACGGTAATCCCCA DNA 2: TGGGGATTACCGTCGA | 3.8 nM
Bcd oligo 17 (dsDNA) DNA 1: TCGACGGTAGTCCCTA DNA 2: TAGGGACTACCGTCGA | 45.8 nM
Bcd oligo 20 (dsDNA) DNA 1: TCGACGGTAAGCCCTA DNA 2: TAGGGCTTACCGTCGA | 18.8 nM
Bcd oligo 13 (dsDNA) DNA 1: TCGACGGTCATCCCTA DNA 2: TAGGGATGACCGTCGA | 64.3 nM
Bcd oligo 8 (dsDNA) DNA 1: TCGACGTTAATCCCTA DNA 2: TAGGGATTAACGTCGA | 2.83 nM
Bcd oligo 10 (dsDNA) DNA 1: TCGACGGCAATCCCTA DNA 2: TAGGGATTGCCGTCGA | 20.6 nM
Bcd oligo 14 (dsDNA) DNA 1: TCGACGGTGATCCCTA DNA 2: TAGGGATCACCGTCGA | 8.98 nM
Bcd oligo 18 (dsDNA) DNA 1: TCGACGGTATTCCCTA DNA 2: TAGGGAATACCGTCGA | 128 nM
Bcd oligo 15 (dsDNA) DNA 1: TCGACGGTTATCCCTA DNA 2: TAGGGATAACCGTCGA | 29.4 nM
Bcd oligo 7 (dsDNA) DNA 1: TCGACGCTAATCCCTA DNA 2: TAGGGATTAGCGTCGA | 2.79 nM
Bcd oligo 16 (dsDNA) DNA 1: TCGACGGTACTCCCTA DNA 2: TAGGGAGTACCGTCGA | 146 nM
Bcd oligo 22 (dsDNA) DNA 1: TCGACGGTAATGCCTA DNA 2: TAGGCATTACCGTCGA | 92.1 nM
Bcd oligo 32 (dsDNA) DNA 1: TCGACGGTAATCCCGA DNA 2: TCGGGATTACCGTCGA | 5.08 nM

Target: T2, Bicoid DBD-GST (Bcd)
Test: EMSA; direct titration; HiP-FA: 33 mM phosphate pH 7.0, 90 mM NaCl, 0.01% Tween 20, 0.1 mM DTT, 0.5% agarose; conventional titration and EMSA: 20 mM Tris-acetate pH 7.0, 50 nM (sic) NaCl, 0.01% Tween-20, 0.1 mM DTT
Details: protein: recombinant; tags: N-terminal GST; label: Cy3; blunt

Molecule | Kd
Bcd EMSA 16-mer (dsDNA) DNA 1: TCGACCGTAATCCCTA DNA 2: TAGGGATTACGGTCGA | 1.8 ± 0.2 nM

Target: T2, Bicoid DBD-GST (Bcd)
Test: competitive fluorescence anisotropy (HiP-FA); HiP-FA: 33 mM phosphate pH 7.0, 90 mM NaCl, 0.01% Tween 20, 0.1 mM DTT, 0.5% agarose; conventional titration and EMSA: 20 mM Tris-acetate pH 7.0, 50 nM (sic) NaCl, 0.01% Tween-20, 0.1 mM DTT
Details: protein: recombinant; tags: N-terminal GST; blunt

Molecule | Kd
Bcd consensus CGGTAATCCCT (dsDNA) DNA 1: TCGACGGTAATCCCTA DNA 2: TAGGGATTACCGTCGA | 2.2 nM

Target: T2, Bicoid DBD-GST (Bcd)
Test: competitive fluorescence anisotropy (HiP-FA); mean of replicates 2.83, 2.8405; HiP-FA: 33 mM phosphate pH 7.0, 90 mM NaCl, 0.01% Tween 20, 0.1 mM DTT, 0.5% agarose; conventional titration and EMSA: 20 mM Tris-acetate pH 7.0, 50 nM (sic) NaCl, 0.01% Tween-20, 0.1 mM DTT
Details: protein: recombinant; tags: N-terminal GST; blunt, G:G mismatch at position 6

Molecule | Kd
Bcd competitor 8 (G3T) (dsDNA) DNA 1: TCGACGTTAATCCCTA DNA 2: TAGGGATTAAGGTCGA | 2.83 nM

Target: T2, Bicoid DBD-GST (Bcd)
Test: competitive fluorescence anisotropy (HiP-FA); mean of replicates 3.766, 3.8365; HiP-FA: 33 mM phosphate pH 7.0, 90 mM NaCl, 0.01% Tween 20, 0.1 mM DTT, 0.5% agarose; conventional titration and EMSA: 20 mM Tris-acetate pH 7.0, 50 nM (sic) NaCl, 0.01% Tween-20, 0.1 mM DTT
Details: protein: recombinant; tags: N-terminal GST; blunt, G:G mismatch at position 6

Molecule | Kd
Bcd competitor 9 (G3A) (dsDNA) DNA 1: TCGACGATAATCCCTA DNA 2: TAGGGATTATGGTCGA | 3.8 nM

Target: T2, Bicoid DBD-GST (Bcd)
Test: competitive fluorescence anisotropy (HiP-FA); mean of replicates 18.854, 22.285; HiP-FA: 33 mM phosphate pH 7.0, 90 mM NaCl, 0.01% Tween 20, 0.1 mM DTT, 0.5% agarose; conventional titration and EMSA: 20 mM Tris-acetate pH 7.0, 50 nM (sic) NaCl, 0.01% Tween-20, 0.1 mM DTT
Details: protein: recombinant; tags: N-terminal GST; blunt, G:G mismatch at position 6

Molecule | Kd
Bcd competitor 10 (T4C) (dsDNA) DNA 1: TCGACGGCAATCCCTA DNA 2: TAGGGATTGCGGTCGA | 20.6 nM

Target: T2, Bicoid DBD-GST (Bcd)
Test: competitive fluorescence anisotropy (HiP-FA); mean of replicates 13.103, 12.6865; HiP-FA: 33 mM phosphate pH 7.0, 90 mM NaCl, 0.01% Tween 20, 0.1 mM DTT, 0.5% agarose; conventional titration and EMSA: 20 mM Tris-acetate pH 7.0, 50 nM (sic) NaCl, 0.01% Tween-20, 0.1 mM DTT
Details: protein: recombinant; tags: N-terminal GST; blunt, G:G mismatch at position 6

Molecule | Kd
Bcd competitor 12 (T4A) (dsDNA) DNA 1: TCGACGGAAATCCCTA DNA 2: TAGGGATTTCGGTCGA | 12.9 nM

Target: T2, Bicoid DBD-GST (Bcd)
Test: competitive fluorescence anisotropy (HiP-FA); mean of replicates 20.981, 21.8595; HiP-FA: 33 mM phosphate pH 7.0, 90 mM NaCl, 0.01% Tween 20, 0.1 mM DTT, 0.5% agarose; conventional titration and EMSA: 20 mM Tris-acetate pH 7.0, 50 nM (sic) NaCl, 0.01% Tween-20, 0.1 mM DTT
Details: protein: recombinant; tags: N-terminal GST; blunt, G:G mismatch at position 6

Molecule | Kd
Bcd competitor 11 (T4G) (dsDNA) DNA 1: TCGACGGGAATCCCTA DNA 2: TAGGGATTCCGGTCGA | 21.4 nM

Reference: article PMC5913336, “True equilibrium measurement of transcription factor-DNA binding affinities using automated polarization microscopy”
